Like-named read-outs stand apart in the source and are kept apart here.

Assay [1] deals with human plasmin (purified) (human). Kind of assay: enzyme inhibition titration.
The target is the same in assay [2]. Kind of assay: enzyme inhibition titration. The source holds these as a separate data set.
Assay [3] has the same target. Kind of assay: enzyme inhibition progress curves.

Molecule “miropin (recombinant, tag-free) (from UniProt G8UQY8 1-432) (natural protein)” showed a stoichiometry of inhibition (SI) in assay [1] of 2.3.

B1: human α2-antiplasmin (natural protein)
chain: NQEQVSPLTLLKLGNQEPGGQTALKSPPGVCSRDPTPEQTHRLARAMMAFTADLFSLVAQTSTCPNLILSPLSVALALSHLALGAQNHTLQRLQQVLHAGSGPCLPHLLSRLCQDLGPGAFRLAARMYLQKGFPIKEDFLEQSEQLFGAKPVSLTGKQEDDLANINQWVKEATEGKIQEFLSGLPEDTVLLLLNAIHFQGFWRNKFDPSLTQRDSFHLDEQFTVPVEMMQARTYPLRWFLLEQPEIQVAHFPFKNNMSFVVLVPTHFEWNVSQVLANLSWDTLHPPLVWERPTKVRLPKLYLKHQMDLVATLSQLGLQELFQAPDLRGISEQSLVVSGVQHQSTLELSEVGVEAAAATSIAMSRMSLSSFSVNRPFLFFIFEDTTGLPLFVGSVRNPNPSAPRELKEQQDSPGNKDFLQSLKGFPRGDKLFGPDLKLVPPMEEDYPQFGSPK
As usually defined, the kon is a measure of how fast the partners come together. Low values mean slow association, high ones fast association. Take B1: in assay [2], the stoichiometry of inhibition (SI) turned out to be 1.1. Also, the kon in assay [3] was determined as 1.3e+06 M⁻¹ s⁻¹.

(Values after paper PMC8882047.)
